Measured values from publication PMC3750193, “Disassembly of All SNARE Complexes by N-Ethylmaleimide-sensitive Factor (NSF) Is Initiated by a Conserved 1:1 Interaction between α-Soluble NSF Attachment Protein (SNAP) and SNARE Complex*^([image sbox.jpg])” (The Journal of Biological Chemistry, 2013).

Tests used:
Assay in all cases: other fluorescence titration; change in Oregon Green 488 fluorescence intensity of the labeled SNARE complex as a function of α-SNAP concentration; fit y = Fmax·x/(KD + x); three independent experiments
[1] = biological target: all four ternary SNARE complexes
[2] = biological target: T1, VAMP8-syntaxin4-SNAP23 ternary SNARE complex, labeled with Oregon Green 488 (rat, UniProt Q9WUF4 1-76; Q08850 1-274; O70377 1-210, I76C | C141S | E257C | I261C, Oregon Green 488 (maleimide) on cysteines; the labeled endogenous and mutant cysteines are shown in Figure 1A | Oregon Green 488 (maleimide) on cysteines; the labeled endogenous and mutant cysteines …); conditions: both partners purified
T1 construct: VAMP8 (endobrevin), rat, residues 1-76; syntaxin4A, rat, residues 1-274; tag-free; SNAP23, rat; Removal of the His6 tag is told only for α-SNAP; also called VAMP8(1–76)-I76C-syntaxin4A(1–274)-C141S/E257C/I261C-SNAP23; source: E. coli BL21(DE3), coexpressed, purified (Ni-NTA, Superdex 200); copies: + +
T1 sequence (looked up) 1: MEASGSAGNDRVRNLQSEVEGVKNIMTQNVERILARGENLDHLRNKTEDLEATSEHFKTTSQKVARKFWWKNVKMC
T1 sequence (looked up) 2: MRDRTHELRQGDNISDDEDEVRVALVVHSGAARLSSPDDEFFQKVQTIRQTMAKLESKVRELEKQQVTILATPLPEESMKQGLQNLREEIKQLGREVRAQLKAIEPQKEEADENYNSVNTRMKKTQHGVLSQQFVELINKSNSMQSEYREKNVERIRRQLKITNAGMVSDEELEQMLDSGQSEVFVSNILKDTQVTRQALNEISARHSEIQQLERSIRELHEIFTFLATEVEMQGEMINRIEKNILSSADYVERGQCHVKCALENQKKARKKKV
T1 sequence (looked up) 3: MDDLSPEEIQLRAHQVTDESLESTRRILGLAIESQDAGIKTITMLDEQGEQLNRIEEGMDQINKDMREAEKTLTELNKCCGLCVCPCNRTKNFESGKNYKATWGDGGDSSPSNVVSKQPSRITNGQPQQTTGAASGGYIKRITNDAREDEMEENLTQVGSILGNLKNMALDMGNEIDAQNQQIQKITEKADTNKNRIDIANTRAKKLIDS

[3] = biological target: T2, VAMP7-syntaxin4-SNAP23 ternary SNARE complex, labeled with Oregon Green 488 (rat, UniProt Q9JHW5 1-190; Q08850 1-274; O70377 1-210, C21S | C56V | C141S | E257C | I261C, Oregon Green 488 (maleimide) on cysteines; the labeled endogenous and mutant cysteines are shown in Figure 1A); conditions: both partners purified
T2 construct: VAMP7, rat, residues 1-190; syntaxin4A, rat, residues 1-274; tag-free; SNAP23, rat; Removal of the His6 tag is told only for α-SNAP; also called VAMP7(1–190)-C21S/C56V-syntaxin4A(1–274)-C141S/E257C/I261C-SNAP23; source: E. coli BL21(DE3), coexpressed, purified (Ni-NTA, Superdex 200); copies: + +
T2 sequence (looked up) 1: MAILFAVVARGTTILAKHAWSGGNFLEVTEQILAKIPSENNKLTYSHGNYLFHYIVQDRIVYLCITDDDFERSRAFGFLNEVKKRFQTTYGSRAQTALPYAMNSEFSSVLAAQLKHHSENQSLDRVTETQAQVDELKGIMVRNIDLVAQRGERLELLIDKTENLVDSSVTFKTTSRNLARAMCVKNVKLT
T2 sequence (looked up) 2: T1 sequence (looked up) 2
T2 sequence (looked up) 3: T1 sequence (looked up) 3

B1: α-soluble NSF attachment protein (α-SNAP) (natural protein, rat, UniProt P54921 1-295, looked up)
chain: MDTSGKQAEAMALLAEAERKVKNSQSFFSGLFGGSSKIEEACEIYARAANMFKMAKNWSAAGNAFCQAAQLHLQLQSKHDAATCFVDAGNAFKKADPQEAINCLMRAIEIYTDMGRFTIAAKHHISIAEIYETELVDVEKAIAHYEQSADYYKGEESNSSANKCLLKVAGYAAQLEQYQKAIDIYEQVGTSAMDSPLLKYSAKDYFFKAALCHFCIDMLNAKLAVQKYEELFPAFSDSRECKLMKKLLEAHEEQNVDSYTESVKEYDSISRLDQWLTTMLLRIKKTIQGDEEDLR
notes: α-SNAP, rat; His6 tag removed with tobacco etch virus protease; source: E. coli BL21(DE3), purified (Ni-NTA, Superdex 200)
For B1, the Kd [1] was 200 to 600 nM, the binding result [2] was “binds” and the binding result [3] was “binds”.
